# Where two headings read alike, the source gives them in different places.
# Assays:
# [1] = molecular target: importin-alpha (Homo sapiens) (UniProt P52292); assay: ITC; conditions: cited from earlier work
# [2] = molecular target: mouse importin‐α paralog 2 (mImpα2) lacking the importin‐β‐binding (IBB) domain, residues 70–529 (mouse) (UniProt P52293); assay: MST; Monolith NT.115; RED‐NHS‐labelled mImpα2 at 60 nM titrated against NLS peptide 250 μM–7.6 nM; 20 mM Tris–HCl, 127 mM NaCl, pH 8.0, 0.5% Tween‐20; one‐binding site and two‐binding site model fits; apparent
# [3] = molecular target: murine importin-α isoform 2 (mImpα2) lacking the importin-β-binding (IBB) domain (mouse) (UniProt P52293); assay: MST; Monolith NT.115; RED-NHS-labelled mImpα2 at 60 nM titrated against a serial 1:1 dilution (250 µM-7.6 nM) of NLS peptide with 0.5% Tween-20; 20 mM Tris-HCl, 127 mM NaCl, pH 8.0; three repeats, mean ± SD; fitted with one-binding-site, two-binding-site and Hill models; apparent affinity
# [4] = molecular target: importin-alpha (Homo sapiens) (UniProt P52292); conditions: cited from earlier work
# importin-beta = importin-beta (UniProt Q14974); conditions: cited from earlier work
# Chain of importin-beta (Q14974 whole entry): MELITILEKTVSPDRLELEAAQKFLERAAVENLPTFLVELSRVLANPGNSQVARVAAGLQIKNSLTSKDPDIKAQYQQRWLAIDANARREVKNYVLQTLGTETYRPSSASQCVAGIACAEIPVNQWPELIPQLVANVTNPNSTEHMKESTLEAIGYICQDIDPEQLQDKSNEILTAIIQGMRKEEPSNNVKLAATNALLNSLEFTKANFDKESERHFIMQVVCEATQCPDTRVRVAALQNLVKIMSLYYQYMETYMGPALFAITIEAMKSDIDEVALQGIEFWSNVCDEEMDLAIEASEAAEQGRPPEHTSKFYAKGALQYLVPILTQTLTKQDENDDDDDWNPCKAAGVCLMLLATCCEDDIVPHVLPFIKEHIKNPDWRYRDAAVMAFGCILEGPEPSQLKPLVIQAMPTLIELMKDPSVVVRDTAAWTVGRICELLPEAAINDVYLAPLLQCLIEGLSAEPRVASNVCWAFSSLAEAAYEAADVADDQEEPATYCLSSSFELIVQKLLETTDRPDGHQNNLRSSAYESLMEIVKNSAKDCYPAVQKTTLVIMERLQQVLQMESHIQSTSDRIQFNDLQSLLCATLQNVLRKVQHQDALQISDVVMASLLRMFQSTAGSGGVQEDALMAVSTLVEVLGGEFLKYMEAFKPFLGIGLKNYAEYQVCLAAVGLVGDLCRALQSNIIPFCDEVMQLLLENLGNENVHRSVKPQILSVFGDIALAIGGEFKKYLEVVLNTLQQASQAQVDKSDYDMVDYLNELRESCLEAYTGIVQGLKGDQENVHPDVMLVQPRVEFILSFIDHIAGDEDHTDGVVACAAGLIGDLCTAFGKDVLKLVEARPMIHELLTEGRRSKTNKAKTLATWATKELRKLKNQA
substance,measurement,setting,value
TAF8 NLS 297-310 (from UniProt Q7Z7C8),Kd,[1],10.4 µM
"TAF8 NLS peptide (TAF8 residues 297–305, …)","KD1 (site 1, two‐binding site model)",[2],1 µM
same,"KD2 (site 2, two‐binding site model)",[2],1 µM
"TAF8 NLS peptide (…, residues 297-305)",Kd,[3],1.21 µM
importin-alpha IBB domain IBB (from UniProt P52292),Kd,[4],14 µM
same,Kd,importin-beta,0.01 µM

# — paper PMC12375970, “Probing the extent of importin‐α targeting of the TAF8 NLS by eliminating its cationic net‐charge” (Protein Science : A Publication of the Protein Society, 2025)
